This passage reports protein stability index results from the supplement of paper PMC10567573.

B1: ZNF511 (parent)
chain: HLYPADFRFDKPKKSRSPASAEAP
B2: DLC1 (parent)
chain: RDAIEALCRRLNTLNKCAVMKLEI
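Note: lentivirally expressed fusions sorted by FACS into six bins by GFP to DsRed ratio, PSI derived from sequencing read proportions per bin multiplied by bin number.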

One data set covers variants of B1. As to the kind of experiment: protein stability index of a GFP-peptide fusion (GPS, HEK-293T) (PSI 1-6); higher = more stable. Conditions: c terminus: a fixed tail appended.
For HLYPADFRFDKPKKSRSPASIEAP [A21I], the protein stability index came to 2.82.
Still for that read-out and setting: the result for HLYPADFRFDKPKKSRSPASSEAP [A21S] reads 3.4; that for HLYPADFRFDKPKKSRSPASMEAP [A21M], 3.
Still for that read-out and setting: the result for HLYPADFRFDKPKKSRSPASREAP [A21R] reads 2.84.
On the same count and under the same terms, the result for HLYPADFRFDKPKKSRSPASTEAP [A21T] reads 2.75; that for HLYPADFRFDKPKKSRSPASGEAP [A21G], 3; that for HLYPADFRFDKPKKSRSPASYEAP [A21Y], 2.95.
With HLYPADFRFDKPKKSRSPASQEAP [A21Q], the protein stability index came out at 3.67.
Still for that read-out and setting: the result for HLYPADFRFDKPKKSRSPASFEAP [A21F] reads 3.18; that for HLYPADFRFDKPKKSRSPASVEAP [A21V], 2.71; that for HLYPADFRFDKPKKSRSPASHEAP [A21H], 3.12.
With HLYPADFRFDKPKKSRSPASKEAP [A21K], the protein stability index worked out at 2.81.
In the case of HLYPADFRFDKPKKSRSPASEEAP [A21E], the protein stability index was found to be 3.08.
Still for that read-out and setting: under HLYPADFRFDKPKKSRSPASWEAP [A21W] stands 2.28.
On the same count and under the same terms, under HLYPADFRFDKPKKSRSPASDEAP [A21D] stands 2.72; under HLYPADFRFDKPKKSRSPASNEAP [A21N], 2.96; under HLYPADFRFDKPKKSRSPASLEAP [A21L], 2.38.
Still for that read-out and setting: the result for HLYPADFRFDKPKKSRSPASPEAP [A21P] reads 3.11; that for HLYPADFRFDKPKKSRSPASAEFP [A23F], 2.76.
Turning to HLYPADFRFDKPKKSRSPASAERP [A23R], the protein stability index is 2.8.
Same read-out and setting: under HLYPADFRFDKPKKSRSPASAEQP [A23Q] stands 3.06.
The same measure, in the same setting: under HLYPADFRFDKPKKSRSPASAEEP [A23E] stands 2.88; under HLYPADFRFDKPKKSRSPASAESP [A23S], 2.86; under HLYPADFRFDKPKKSRSPASAETP [A23T], 2.72.
For HLYPADFRFDKPKKSRSPASAEDP [A23D], the protein stability index came out at 3.24.
As for HLYPADFRFDKPKKSRSPASAEKP [A23K], the protein stability index came to 3.19.
The same measure, in the same setting: the result for HLYPADFRFDKPKKSRSPASAELP [A23L] reads 2.88; that for HLYPADFRFDKPKKSRSPASAEYP [A23Y], 2.63.
Same read-out and setting: the result for HLYPADFRFDKPKKSRSPASAEMP [A23M] reads 2.53.
On the same count and under the same terms, under HLYPADFRFDKPKKSRSPASAENP [A23N] stands 3.1; under HLYPADFRFDKPKKSRSPASAEPP [A23P], 3.37.
On to HLYPADFRFDKPKKSRSPASAEIP [A23I], for which the protein stability index is 2.69.
For HLYPADFRFDKPKKSRSPASAEWP [A23W], the protein stability index came to 2.82.
Same read-out and setting: under HLYPADFRFDKPKKSRSPASAEGP [A23G] stands 3.28; under HLYPADFRFDKPKKSRSPASAEHP [A23H], 3.13; under HLYPADFRFDKPKKSRSPASAECP [A23C], 2.73.
Same read-out and setting: under HLYPADFRFDKPKKSRSPASAEVP [A23V] stands 2.73; under HLYPADFRFDKPKKSRSPASAEAS [P24S], 3.62.
Regarding HLYPADFRFDKPKKSRSPASAEAA [P24A], the protein stability index was found to be 3.32.
HLYPADFRFDKPKKSRSPASAEAG [P24G]: the protein stability index amounted to 2.42.
On the same count and under the same terms, under HLYPADFRFDKPKKSRSPASAEAI [P24I] stands 2.61; under HLYPADFRFDKPKKSRSPASAEAQ [P24Q], 2.6; under HLYPADFRFDKPKKSRSPASAEAY [P24Y], 2.69.
Still for that read-out and setting: under HLYPADFRFDKPKKSRSPASAEAE [P24E] stands 2.6; under HLYPADFRFDKPKKSRSPASAEAK [P24K], 2.97.
Same read-out and setting: the result for HLYPADFRFDKPKKSRSPASAEAW [P24W] reads 2.14; that for HLYPADFRFDKPKKSRSPASAEAV [P24V], 2.98.
As to HLYPADFRFDKPKKSRSPASAEAR [P24R], the protein stability index stood at 2.39.
Same read-out and setting: the result for HLYPADFRFDKPKKSRSPASAEAC [P24C] reads 2.88; that for HLYPADFRFDKPKKSRSPASAEAN [P24N], 3.09.
The same measure, in the same setting: the result for HLYPADFRFDKPKKSRSPASAEAL [P24L] reads 2.92.
Regarding HLYPADFRFDKPKKSRSPASAEAM [P24M], the protein stability index turned out to be 2.53.
Same read-out and setting: the result for HLYPADFRFDKPKKSRSPASAEAF [P24F] reads 2.94.
In the case of HLYPADFRFDKPKKSRSPASAEAD [P24D], the protein stability index was found to be 3.44.
Turning to HLYPADFRFDKPKKSRSPASAEAT [P24T], the protein stability index was found to be 2.71.
Regarding HLYPADFRFDKPKKSRSPASAEAH [P24H], the protein stability index came to 2.87.
Same read-out and setting: under HLYPADFRFDKPKKSRSPASASAP [E22S] stands 2.83; under HLYPADFRFDKPKKSRSPASAMAP [E22M], 2.19.
Same read-out and setting: under HLYPADFRFDKPKKSRSPASAIAP [E22I] stands 2.93; under HLYPADFRFDKPKKSRSPASAGAP [E22G], 3.13; under HLYPADFRFDKPKKSRSPASAHAP [E22H], 2.63.
Still for that read-out and setting: under HLYPADFRFDKPKKSRSPASAKAP [E22K] stands 2.69; under HLYPADFRFDKPKKSRSPASAAAP [E22A], 2.7; under HLYPADFRFDKPKKSRSPASALAP [E22L], 2.58.
Take HLYPADFRFDKPKKSRSPASARAP [E22R]: the protein stability index amounted to 2.43.
Same read-out and setting: the result for HLYPADFRFDKPKKSRSPASATAP [E22T] reads 2.64.
On the same count and under the same terms, under HLYPADFRFDKPKKSRSPASAFAP [E22F] stands 2.52; under HLYPADFRFDKPKKSRSPASAQAP [E22Q], 2.61.
The same measure, in the same setting: the result for HLYPADFRFDKPKKSRSPASAPAP [E22P] reads 2.91; that for HLYPADFRFDKPKKSRSPASAVAP [E22V], 2.7; that for HLYPADFRFDKPKKSRSPASADAP [E22D], 2.99.
For HLYPADFRFDKPKKSRSPASAYAP [E22Y], the protein stability index turned out to be 2.34.
Same read-out and setting: the result for HLYPADFRFDKPKKSRSPASAWAP [E22W] reads 2.44; that for HLYPADFRFDKPKKSRSPASACAP [E22C], 2.67.
With HLYPADFRFDKPKKSRSPASANAP [E22N], the protein stability index came out at 2.9.

Variants of B2 are the subject of the next data set. Described as above. Conditions: c terminus: a fixed tail appended.
For RDALEALCRRLNTLNKCAVMKLEI [I4L], the protein stability index is 2.59.
RDAVEALCRRLNTLNKCAVMKLEI [I4V]: the protein stability index stood at 3.39.
Take RDAEEALCRRLNTLNKCAVMKLEI [I4E]: the protein stability index is 1.44.
For the variant RDADEALCRRLNTLNKCAVMKLEI [I4D], the protein stability index was determined as 2.67.
Same read-out and setting: the result for RQAIEALCRRLNTLNKCAVMKLEI [D2Q] reads 2.74; that for RGAIEALCRRLNTLNKCAVMKLEI [D2G], 3.23.
As for RDAIEALCRRSNTLNKCAVMKLEI [L11S], the protein stability index worked out at 3.62.
On the same count and under the same terms, under RDAIEALCRRENTLNKCAVMKLEI [L11E] stands 1.84; under RDAIEALCRRNNTLNKCAVMKLEI [L11N], 2.33.
On the same count and under the same terms, the result for RDAIEALCRRDNTLNKCAVMKLEI [L11D] reads 3.27; that for RDAIEALCRRHNTLNKCAVMKLEI [L11H], 1.6; that for RDIIEALCRRLNTLNKCAVMKLEI [A3I], 2.5.
The same measure, in the same setting: under RDCIEALCRRLNTLNKCAVMKLEI [A3C] stands 3.99; under NDAIEALCRRLNTLNKCAVMKLEI [R1N], 1.64; under MDAIEALCRRLNTLNKCAVMKLEI [R1M], 3.94.
As for LDAIEALCRRLNTLNKCAVMKLEI [R1L], the protein stability index amounted to 2.02.
Take QDAIEALCRRLNTLNKCAVMKLEI [R1Q]: the protein stability index came to 3.23.
With KDAIEALCRRLNTLNKCAVMKLEI [R1K], the protein stability index stood at 2.23.
The same measure, in the same setting: the result for RDAIEKLCRRLNTLNKCAVMKLEI [A6K] reads 2.82.
